According to patent US20180086849A1 (Hoffmann-La Roche, published 2018):
Residue numbers refer to the chain shown, from its start.

T1: hu-MCSP(D3 domain)-avi-his (human, UniProt Q6UVK1 1582-2224, biotinylated where used for selection or for coupling to the SA chip)
T1 construct: also called human MCSP(D3 domain)-avi-his; human MCSP D3
T1 sequence: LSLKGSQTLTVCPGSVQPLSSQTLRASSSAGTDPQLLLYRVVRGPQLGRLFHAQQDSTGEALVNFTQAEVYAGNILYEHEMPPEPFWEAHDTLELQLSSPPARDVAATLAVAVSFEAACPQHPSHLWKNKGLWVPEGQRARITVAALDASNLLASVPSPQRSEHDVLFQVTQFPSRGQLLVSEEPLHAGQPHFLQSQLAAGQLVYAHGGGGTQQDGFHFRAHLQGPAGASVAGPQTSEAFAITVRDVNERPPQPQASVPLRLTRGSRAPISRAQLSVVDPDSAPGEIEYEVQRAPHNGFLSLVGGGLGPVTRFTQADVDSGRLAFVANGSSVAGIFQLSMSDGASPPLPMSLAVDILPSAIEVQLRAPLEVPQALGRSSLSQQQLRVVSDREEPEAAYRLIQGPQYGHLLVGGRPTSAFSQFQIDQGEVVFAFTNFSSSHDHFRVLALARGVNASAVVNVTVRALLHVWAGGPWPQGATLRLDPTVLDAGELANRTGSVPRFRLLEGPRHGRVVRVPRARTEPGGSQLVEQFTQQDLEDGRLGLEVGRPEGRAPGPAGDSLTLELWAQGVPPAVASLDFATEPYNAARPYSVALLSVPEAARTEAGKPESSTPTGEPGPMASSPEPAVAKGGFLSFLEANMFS

T2: cynomolgus MCSP D3 (cynomolgus, UniProt Q6UVK1 1582-2224 (human entry))
T2 construct: also called cynomolgus homologue; not shown: C-terminal tag
T2 chain: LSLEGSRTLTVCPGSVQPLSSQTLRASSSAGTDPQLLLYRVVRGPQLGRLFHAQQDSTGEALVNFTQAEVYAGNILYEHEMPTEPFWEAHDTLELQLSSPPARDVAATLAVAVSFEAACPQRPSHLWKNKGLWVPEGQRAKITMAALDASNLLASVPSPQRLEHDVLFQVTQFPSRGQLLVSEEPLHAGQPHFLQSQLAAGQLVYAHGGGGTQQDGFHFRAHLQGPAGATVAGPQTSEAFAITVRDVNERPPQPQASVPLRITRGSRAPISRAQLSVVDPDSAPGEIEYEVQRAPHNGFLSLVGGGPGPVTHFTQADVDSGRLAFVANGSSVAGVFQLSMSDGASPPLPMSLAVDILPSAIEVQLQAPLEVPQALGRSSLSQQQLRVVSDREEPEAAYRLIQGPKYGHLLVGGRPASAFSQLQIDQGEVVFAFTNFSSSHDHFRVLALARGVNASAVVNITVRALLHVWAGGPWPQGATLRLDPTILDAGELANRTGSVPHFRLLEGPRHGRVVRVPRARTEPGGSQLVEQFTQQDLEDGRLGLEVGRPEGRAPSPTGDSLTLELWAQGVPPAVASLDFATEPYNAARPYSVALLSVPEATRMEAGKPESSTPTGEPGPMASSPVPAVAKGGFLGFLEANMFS

B1: 1+1 IgG Crossfab; VL/VH exchange (LC007/V9), anti-MCSP/anti-huCD3 (bispecific antibody)
chain 1: DIVLTQSPSSLSASLGDRVTISCSASQGIRNYLNWYQQRPDGTVKLLIYYTSSLHSGVPSRFSGSGSGTDYSLTISNLEPEDIATYYCQQYSKLPWTFGGGTKLEIKRTVAAPSVFIFPPSDEQLKSGTASVVCLLNNFYPREAKVQWKVDNALQSGNSQESVTEQDSKDSTYSLSSTLTLSKADYEKHKVYACEVTHQGLSSPVTKSFNRGEC
chain 2: DIQMTQSPSSLSASVGDRVTITCRASQDIRNYLNWYQQKPGKAPKLLIYYTSRLESGVPSRFSGSGSGTDYTLTISSLQPEDFATYYCQQGNTLPWTFGQGTKVEIKSSASTKGPSVFPLAPSSKSTSGGTAALGCLVKDYFPEPVTVSWNSGALTSGVHTFPAVLQSSGLYSLSSVVTVPSSSLGTQTYICNVNHKPSNTKVDKKVEPKSCGGGGSGGGGSEVQLQESGPGLVKPSQSLSLTCSVTGYSITSGYYWNWIRQFPGNKLEWMGYITYDGSNNYNPSLKNRISITRDTSKNQFFLKLNSVTTEDTATYYCADFDYWGQGTTLTVSSASTKGPSVFPLAPSSKSTSGGTAALGCLVKDYFPEPVTVSWNSGALTSGVHTFPAVLQSSGLYSLSSVVTVPSSSLGTQTYICNVNHKPSNTKVDKKVEPKSCDKTHTCPPCPAPEAAGGPSVFLFPPKPKDTLMISRTPEVTCVVVDVSHEDPEVKFNWYVDGVEVHNAKTKPREEQYNSTYRVVSVLTVLHQDWLNGKEYKCKVSNKALGAPIEKTISKAKGQPREPQVCTLPPSRDELTKNQVSLSCAVKGFYPSDIAVEWESNGQPENNYKTTPPVLDSDGSFFLVSKLTVDKSRWQQGNVFSCSVMHEALHNHYTQKSLSLSPGK
chain 3: EVQLVESGGGLVQPGGSLRLSCAASGYSFTGYTMNWVRQAPGKGLEWVALINPYKGVSTYNQKFKDRFTISVDKSKNTAYLQMNSLRAEDTAVYYCARSGYYGDSDWYFDVWGQGTLVTVSSASVAAPSVFIFPPSDEQLKSGTASVVCLLNNFYPREAKVQWKVDNALQSGNSQESVTEQDSKDSTYSLSSTLTLSKADYEKHKVYACEVTHQGLSSPVTKSFNRGEC
chain 4: not shown
B2: M4-3(B7)/ML2 (IgG) (antibody, V domains shown)
VH: QVQLQESGPGLVKPSQTLSLTCTVSGGSITSGYYWNWIRQHPGKGLEWIGYITFDGINNYNPSLKSRVTISRDTSKNQFSLKLSSVTAADTAVYYCADFDYWGQGTLVTVSS
VL: DIQMTQSPSSLSASVGDRVTITCRASQGIRNYLNWYQQKPGKAPKLLIYYTSSLHSGVPSRFSGSGSGTDFTLTISSLQPEDFATYYCQQYSKLPWTFGQGTKVEIK
notes: Human IgG1 format
B3: M4-3(C1)/ML2(G3) (IgG) (antibody, V domains shown)
VH: B2 VH with I57S
VL: DIQMTQSPSSLSASVGDRVTITCRASQGIRNYLNWYQQKPGKAPKLLIYYTSSLHSGVPSRFSGSGSGTDYTLTISSLQPEDFATYYCQQYSALPWTFGQGTKVEIKR
notes: Human IgG1; also called MCSP M4-3(C1) ML2(G3)
B4: M4-3/ML2 (C5) (IgG) (antibody, V domains shown)
VH: B2 VH with F54Y, I57S
VL: B2 VL with Q27R, N31E, S52G, K93E
notes: Human IgG1 format
B5: M4-3(B8)/ML2 (IgG) (antibody, V domains shown)
VH: B2 VH with I57R
VL: B2 VL
notes: Human IgG1 format
B6: M4-3(A7)/ML2 (IgG) (antibody, V domains shown)
VH: B2 VH with S31D, I57R
VL: B2 VL
notes: Human IgG1 format
B7: M4-3/ML2 (E10) (IgG) (antibody, V domains shown)
VH: B2 VH with F54Y, I57S
VL: B2 VL with Q27Y, N31G, Y87H
notes: Human IgG1 format
B8: M4-3(A7)/ML2(E10) (IgG) (antibody, V domains shown)
VH: B2 VH with S31D, I57R
VL: B2 VL with Q27Y, N31G, Y87H
notes: Human IgG1 format
B9: M4-3/ML2(G3) (IgG) (antibody, V domains shown)
VH: B2 VH with F54Y, I57S
VL: B2 VL with F71Y, K93A
notes: Human IgG1 format
B10: M4-3(D6)/ML2 (IgG) (antibody, V domains shown)
VH: B2 VH with I57K
VL: B2 VL
notes: Human IgG1 format
B11: M4-3(C1)/ML2 (IgG) (antibody, V domains shown)
VH: B2 VH with I57S
VL: B2 VL
notes: Human IgG1 format
B12: M4-3(A7)/ML2(G3) (IgG) (antibody, V domains shown)
VH: B2 VH with S31D, I57R
VL: B2 VL with F71Y, K93A
notes: Human IgG1 format
B13: M4-3(C1)/ML2(C5) (IgG) (antibody, V domains shown)
VH: B2 VH with I57S
VL: B2 VL with Q27R, N31E, S52G, K93E
notes: Human IgG1 format
B14: M4-3(C1)/ML2(E10) (IgG) (antibody, V domains shown)
VH: B2 VH with I57S
VL: B2 VL with Q27Y, N31G, Y87H
notes: Human IgG1 format
B15: M4-3/ML2 (C5/G3) (IgG) (antibody, V domains shown)
VH: B2 VH with F54Y, I57S
VL: B2 VL with Q27R, N31E, S52G, K93A
notes: Human IgG1 format
B16: M4-3/ML2 (E10/G3) (IgG) (antibody, V domains shown)
VH: B2 VH with F54Y, I57S
VL: B2 VL with Q27Y, N31G, Y87H, K93A
notes: Human IgG1 format

Each binder was assayed against human MCSP (Melanoma-associated Chondroitin Sulfate Proteoglycan) on cells (human, UniProt Q6UVK1 30-2322) (assay: cell-based or functional assay).
human MCSP (Melanoma-associated Chondroitin Sulfate Proteoglycan) on cells, sequence (Q6UVK1 30-2322): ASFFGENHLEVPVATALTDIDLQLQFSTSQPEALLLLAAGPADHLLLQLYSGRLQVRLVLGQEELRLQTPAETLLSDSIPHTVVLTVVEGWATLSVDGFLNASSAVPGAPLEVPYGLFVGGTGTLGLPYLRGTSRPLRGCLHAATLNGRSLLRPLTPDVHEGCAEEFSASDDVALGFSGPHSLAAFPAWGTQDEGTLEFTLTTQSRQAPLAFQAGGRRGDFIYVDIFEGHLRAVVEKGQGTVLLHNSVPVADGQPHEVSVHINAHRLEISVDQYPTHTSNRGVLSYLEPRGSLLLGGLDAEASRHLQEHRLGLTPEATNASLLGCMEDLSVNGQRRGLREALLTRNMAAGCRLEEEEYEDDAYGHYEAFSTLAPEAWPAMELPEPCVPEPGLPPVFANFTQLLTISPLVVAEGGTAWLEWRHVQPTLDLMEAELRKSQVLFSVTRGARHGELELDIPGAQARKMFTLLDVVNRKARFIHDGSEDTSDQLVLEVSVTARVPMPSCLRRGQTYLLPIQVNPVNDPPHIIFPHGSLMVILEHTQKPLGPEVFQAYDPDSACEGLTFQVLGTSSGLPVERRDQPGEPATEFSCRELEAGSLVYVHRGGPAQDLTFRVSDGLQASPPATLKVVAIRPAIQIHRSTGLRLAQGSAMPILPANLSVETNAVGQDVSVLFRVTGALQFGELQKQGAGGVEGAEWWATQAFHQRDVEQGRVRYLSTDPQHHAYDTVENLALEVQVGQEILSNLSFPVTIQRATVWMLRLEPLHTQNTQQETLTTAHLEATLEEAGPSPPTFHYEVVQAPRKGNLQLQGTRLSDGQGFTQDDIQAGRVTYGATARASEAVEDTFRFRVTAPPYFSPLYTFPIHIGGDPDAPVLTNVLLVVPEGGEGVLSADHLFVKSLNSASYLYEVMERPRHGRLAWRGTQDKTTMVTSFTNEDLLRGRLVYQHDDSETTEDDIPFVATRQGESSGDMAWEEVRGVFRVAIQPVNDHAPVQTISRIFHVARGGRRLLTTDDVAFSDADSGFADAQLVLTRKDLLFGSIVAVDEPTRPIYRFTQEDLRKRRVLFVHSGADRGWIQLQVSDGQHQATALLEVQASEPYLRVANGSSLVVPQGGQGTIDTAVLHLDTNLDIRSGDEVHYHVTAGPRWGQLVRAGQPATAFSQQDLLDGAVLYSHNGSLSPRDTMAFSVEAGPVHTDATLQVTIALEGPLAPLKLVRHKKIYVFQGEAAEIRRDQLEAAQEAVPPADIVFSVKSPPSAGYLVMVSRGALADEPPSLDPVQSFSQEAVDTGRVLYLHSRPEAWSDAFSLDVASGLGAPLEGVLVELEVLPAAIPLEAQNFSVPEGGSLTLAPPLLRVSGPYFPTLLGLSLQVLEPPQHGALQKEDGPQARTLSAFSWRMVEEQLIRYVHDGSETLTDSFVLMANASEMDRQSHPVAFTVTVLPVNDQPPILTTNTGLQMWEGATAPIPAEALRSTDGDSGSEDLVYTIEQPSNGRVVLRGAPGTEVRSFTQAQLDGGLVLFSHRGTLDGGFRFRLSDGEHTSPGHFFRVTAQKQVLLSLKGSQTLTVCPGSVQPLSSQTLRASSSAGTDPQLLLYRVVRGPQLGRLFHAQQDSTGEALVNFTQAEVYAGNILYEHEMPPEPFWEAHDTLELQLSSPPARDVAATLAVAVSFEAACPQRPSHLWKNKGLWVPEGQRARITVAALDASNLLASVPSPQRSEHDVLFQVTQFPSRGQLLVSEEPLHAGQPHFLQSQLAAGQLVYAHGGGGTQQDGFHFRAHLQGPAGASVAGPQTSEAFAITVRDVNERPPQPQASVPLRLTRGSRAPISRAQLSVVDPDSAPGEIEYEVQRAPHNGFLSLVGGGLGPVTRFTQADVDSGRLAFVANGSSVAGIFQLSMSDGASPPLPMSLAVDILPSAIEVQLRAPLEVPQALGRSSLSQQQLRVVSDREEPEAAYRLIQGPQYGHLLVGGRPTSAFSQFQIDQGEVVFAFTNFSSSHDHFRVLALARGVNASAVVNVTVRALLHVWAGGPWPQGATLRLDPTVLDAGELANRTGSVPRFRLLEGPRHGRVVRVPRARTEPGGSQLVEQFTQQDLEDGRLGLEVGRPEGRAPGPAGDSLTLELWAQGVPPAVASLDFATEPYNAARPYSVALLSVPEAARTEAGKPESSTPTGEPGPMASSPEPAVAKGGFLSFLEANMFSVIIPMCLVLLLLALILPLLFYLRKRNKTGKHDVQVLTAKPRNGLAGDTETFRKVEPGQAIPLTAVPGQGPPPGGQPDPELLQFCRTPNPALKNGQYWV

Row | Binder | EC50 of T cell-mediated killing (LDH release) of MV-3 cells, human PBMCs, 21 h [nM] | EC50 of T cell-mediated killing (LDH release) of WM266-4 cells, human PBMCs, 21 h [nM]
1 | B1 | 0.0409 | 0.0284

Each binder was assayed against T1, hu-MCSP(D3 domain)-avi-his (assay: SPR (ProteOn XPR36), IgG KD against parental M4-3/ML2).
Procedure: (§1) Briefly, carboxymethylated dextran biosensor chips (CM5, GE Healthcare) were activated with N-ethyl-N′-(3-dimethylaminopropyl)-carbodiimide hydrochloride (EDC) and N-hydroxysuccinimide (NHS) according to the supplier's instructions. Anti-human F(ab′)2 fragment specific capture antibody was diluted with 10 mM sodium acetate, pH 5.0 at 50 μg/ml before injection at a flow rate of 10 μl/minute to achieve approximately up to 10.000 response units (RU) of coupled capture antibody. Following the injection of the capture antibody, 1 M ethanolamine was injected to block unreacted groups. For kinetics measurements, Fabs from bacterial supernatant or purified Fabs are injected at a flow rate of 10 ul/minute for 300 s and a dissociation of 300 s for capture baseline stabilization. […] The surface of the sensorchip was regenerated by injection of glycine pH 1.5 for 30 s at 90 ul/min followed by injection of NaOH for 20 s at the same flow rate. Association rates (kon) and dissociation rates (koff) were calculated using a simple one-to-one Langmuir binding model (ProteOn XPR36 Evaluation Software or Scrubber software (BioLogic)) by simultaneously fitting the association and dissociation sensorgrams. The equilibrium dissociation constant (KD) was calculated as the ratio koff/kon. […] Since CDR1 and 2 of the light chain were randomized independent from CDR3, the obtained CDRs were combined during IgG conversion.
(§2) In the IgG format affinities were measured again to the human MCSP antigen (SEQ ID NO. 390), in addition also to the cynomolgus homologue (SEQ ID NO. 389). Method exactly as described for the Fab fragments, just purified IgG from mammalian production were used.

Row | Binder | Comparative binding affinity - Fold increase over parent [fold]
2 | B2 | 4
3 | B3 | 28.6
4 | B4 | 5
5 | B5 | 2.2
6 | B6 | 2.5
7 | B7 | 2
8 | B8 | 6.7
9 | B9 | 6.7
10 | B10 | 5
11 | B11 | 2.2
12 | B12 | 28.6
13 | B13 | 10
14 | B14 | 4
15 | B15 | 2.9
16 | B16 | 5

Target: T2, cynomolgus MCSP D3
Assay: as above
Procedure: as §1, §2

Row | Binder | Comparative binding affinity - Fold increase over parent [fold]
17 | B2 | 2.9
18 | B3 | 10
19 | B4 | 2
20 | B5 | 2
21 | B6 | 2
22 | B7 | 1
23 | B8 | 2.9
24 | B9 | 3.3
25 | B10 | 2
26 | B11 | 2.5
27 | B12 | 10
28 | B13 | 6.7
29 | B14 | 3.3
30 | B15 | 2
31 | B16 | 2.2
